Assay results published in patent US20260226180A1 (BIOCYTOGEN PHARMACEUTICALS BEIJING, published 2026).
Read-outs that look alike come from different tables or passages of the source.

T1: human IL2RA expressed on CHO-S cells (CHO-S-hIL2RA cells) (human, UniProt P01589 22-272)
T1 sequence: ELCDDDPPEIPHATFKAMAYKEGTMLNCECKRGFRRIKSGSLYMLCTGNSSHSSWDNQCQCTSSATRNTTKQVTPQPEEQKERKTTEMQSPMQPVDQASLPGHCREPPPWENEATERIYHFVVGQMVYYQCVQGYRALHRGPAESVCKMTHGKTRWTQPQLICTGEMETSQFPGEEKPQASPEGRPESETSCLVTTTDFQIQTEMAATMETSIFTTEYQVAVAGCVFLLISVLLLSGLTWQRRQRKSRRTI

T2: His-tagged human IL2RA protein (hIL2RA-his, ACROBiosystems Inc., Cat #: ILA-H52H9) (human, UniProt P01589 22-213, limits assumed)
T2 construct: Bought protein; the soluble protein is most likely only an extracellular part of it; not shown: His tag
T2 sequence: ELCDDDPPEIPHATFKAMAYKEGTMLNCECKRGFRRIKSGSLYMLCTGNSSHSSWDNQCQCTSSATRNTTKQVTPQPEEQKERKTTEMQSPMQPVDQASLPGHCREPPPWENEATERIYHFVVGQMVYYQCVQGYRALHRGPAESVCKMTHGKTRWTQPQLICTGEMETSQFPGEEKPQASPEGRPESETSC

T3: His-tagged recombinant monkey (Cynomolgus monkey, Macaca fascicularis) IL2RA protein (cynoIL2RA-his, Sino … (Cynomolgus monkey (Macaca fascicularis), UniProt Q5MNY4 22-213 (rhesus entry)))
T3 construct: Bought protein; the soluble protein is most likely only an extracellular part of it; not shown: His tag
T3 chain: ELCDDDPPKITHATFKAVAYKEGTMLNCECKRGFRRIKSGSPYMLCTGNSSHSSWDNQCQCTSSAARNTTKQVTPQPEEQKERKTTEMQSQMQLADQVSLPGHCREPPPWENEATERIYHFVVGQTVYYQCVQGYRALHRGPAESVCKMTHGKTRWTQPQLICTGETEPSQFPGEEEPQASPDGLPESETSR

T4: monkey (Macaca fascicularis) IL2RA expressed on CHO-S cells (CHO-S-fasIL2RA cells) (monkey (Macaca fascicularis), UniProt Q5MNY4 22-272)
T4 chain: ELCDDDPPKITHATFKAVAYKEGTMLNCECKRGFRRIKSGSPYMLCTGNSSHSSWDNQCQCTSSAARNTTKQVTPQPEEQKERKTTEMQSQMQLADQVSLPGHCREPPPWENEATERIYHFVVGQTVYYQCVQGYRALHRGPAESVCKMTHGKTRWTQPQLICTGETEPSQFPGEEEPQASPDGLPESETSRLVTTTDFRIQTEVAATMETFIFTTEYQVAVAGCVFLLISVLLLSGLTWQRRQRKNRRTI

B1: Daclizumab analog (antibody, V domains shown)
VH: QVQLVQSGAEVKKPGSSVKVSCKASGYTFTSYRMHWVRQAPGQGLEWIGYINPSTGYTEYNQKFKDKATITADESTNTAYMELSSLRSEDTAVYVCARGGGVFDYWGQGTLVTVSS
VL: DIQMTQSPSTLSASVGDRVTITCSASSSISYMHWYQQKPGKAPKLLIYTTSNLASGVPARFSGSGSGTEFTLTISSLQPDDFATYYCHQRSTYPLTFGQGTKVEVK
notes: Daclizumab is described as a humanized monoclonal antibody
B2: RG6292 analog (antibody, V domains shown)
VH: QVQLVQSGAEVKKPGASVKVSCKASGYTFTSYYMHWVRQAPGQGLEWMGIINPSGGSTSYAQKFQGRVTMTRDTSTSTVYMELSSLRSEDTAVYYCARGGAEYIPAEYFQHWGQGTLVTVSS
VL: EIVMTQSPATLSLSPGERATLSCRASQSVSSYLAWYQQKPGQAPRLLIYDASNRATGIPARFSGSGSGTDFTLTISSLEPEDFAVYYCQQRPFLPTFGGGTKVEIK
notes: RG6292 is described as a human IgG1 monoclonal antibody
B3: anti-IL2RA antibody 7B5 (antibody, V domains shown)
VH: EVQLQQWGAGLLKPSETLSLTCAVYGGSFSGYYWNWIRQPPGKGLEWIGESDHSGSTHFNPSLKSRVTISLDTSKNQFSLKLNSVTAADTAVYFCARAPDYGDFDHWGQGILVTVSS
VL: DIQMTQSPDSLAVSLGERATINCRSSQSVLHSSTNKRYLAWYQQKPRQPPKLLIYWTSTRESGVPDRFSGSGSGTDFTLTISSLQAEDVAVYFCQQYYSTPYTFGQGTKLEIK
B4: anti-IL2RA antibody 11C3 (antibody, human IgG1, V domains shown)
VH: QVQLVQSGAEVKKPGASVKVSCKASGYTFNSYYIHWVRQAPGQGLEWLGIINPTGGRTIYAQKFQGRVTMTRDTSTTTVDMELSSLRSEDTAVYYCARVPGYCKDTSCQDFYYYYGMDVWGQGSTVTVSS
VL: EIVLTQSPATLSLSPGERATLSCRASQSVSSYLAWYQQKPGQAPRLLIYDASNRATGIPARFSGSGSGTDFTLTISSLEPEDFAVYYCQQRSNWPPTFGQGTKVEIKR
B5: anti-IL2RA antibody 11C12 (antibody, human IgG1, V domains shown)
VH: QVQLVQSGGGLVQPGGSLRLSCSASGLTFSSYGMHWVRQAPGKGLDYVSGITNNGGRTEYADSVKGRFTISRDNSKNTLYLQMSSLRTEDTAVYYCVKEDWNGQYYYYAMDVWGQGTTVTVSS
VL: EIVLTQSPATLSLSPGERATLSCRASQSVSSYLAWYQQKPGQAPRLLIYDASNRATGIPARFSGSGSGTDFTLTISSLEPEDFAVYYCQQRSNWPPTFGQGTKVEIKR
notes: also called 1IC12
B6: anti-IL2RA antibody 11D2 (antibody, human IgG1, V domains shown)
VH: QVQLVQSGGGVVQPGRSLRLSCAASGFTFTNYAIHWVRQAPGKGLEWVAVIWSDGDNKYYADSVKGRFTISRDNSKNTLYLQMNSLRAEDTAVYYCARTPWYCTSTNCYTGYYYYGMDVWGQGTTVTVSS
VL: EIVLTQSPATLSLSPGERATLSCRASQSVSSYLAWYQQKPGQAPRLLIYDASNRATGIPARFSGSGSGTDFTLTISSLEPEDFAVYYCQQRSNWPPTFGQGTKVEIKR
B7: anti-IL2RA antibody 13F9 (antibody, human IgG1, V domains shown)
VH: QVQLVQSGAEVKRPGASVKVSCKASGYTFTTYAIHWVRQAPGQRLEWMGWINADNGYTKYSQNFQGRVTITRDTSASTAYMDLSTLRSEDTALYYCARTPRYCTSTSCSTGYYYYGMDVWGQGTTVTVSS
VL: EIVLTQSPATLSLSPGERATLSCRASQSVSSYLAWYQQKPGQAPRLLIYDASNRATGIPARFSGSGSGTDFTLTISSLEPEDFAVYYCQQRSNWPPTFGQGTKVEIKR
B8: anti-IL2RA antibody 5D9 (antibody, V domains shown)
VH: EVQLVESGGGLVQPGGSLRLSCAASGFTVSSNYMSWVRQTPGKGLELVSFIYSGGITSYADSVRGRFTISRDNSKNTLYLQMNSLRAEDTAVYYCARDDYSNYFDYWGQGTLVTVSS
VL: DIQMTQSPSSVSASVGDRVTITCRASQGISNWLAWYQQKPGKAPKLLIFAASSLQSGVPSRFSGSGSGTDFTLTISSLQPEDFATYYCQQAKSFPITFGQGTRLEIK
notes: Variable regions were cloned onto a human IgG constant region; also called 5D9-IgG1
B9: anti-IL2RA antibody 14C2 (antibody, human IgG1, V domains shown)
VH: QVQLVQSGGGVVQPGRSLRLSCAASGFTFSTYGMHWVRQAPGKGLEWVAVISYDGSDKIYADSVKGRFTISRDNSKNTLFLQMNSLRAEDTAVYYCATGPMENYYYYNMDVWGLGTTVTVSS
VL: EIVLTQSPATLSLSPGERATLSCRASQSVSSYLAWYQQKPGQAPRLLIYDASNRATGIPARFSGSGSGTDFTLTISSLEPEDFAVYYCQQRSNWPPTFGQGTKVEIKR

Assays:
[1] = molecular target: T1, human IL2RA expressed on CHO-S cells …; assay: flow cytometry blocking assay on CHO-S-hIL2RA cells; blocked ligand: biotinylated human IL-2 at 2.5 µg/mL, detected with APC streptavidin
Experimental: (§1) CHO-S-hIL2RA cells were seeded in a 96-well plate (cell density 2×10⁵ cells/well) and incubated at 37° C. overnight. […] The above 96-well plate was incubated at 4° C. for 20 minutes.
(§2) The mean fluorescence intensity (MFI) was determined. A fitting curve was obtained using Log(antibody concentration (μg/mL)) or antibody concentration (μg/mL) as the X-axis and Log(mean MFI) or MFI as the Y-axis.

[2] = molecular target: T1, human IL2RA expressed on CHO-S cells …; assay: as above; remark: listed apart in the source
Experimental: as §1, §2

[3] = molecular target: T2, His-tagged human IL2RA protein …; assay: SPR (Biacore 8K), antibody captured on Protein A chip, His-tagged antigen as analyte, 1:1 fit;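 also: antibodies captured at about 150 RU, antigen injected as a titration series, dissociation phase recorded over 400 s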
Experimental: (§3) Purified anti-IL2RA antibodies were diluted to 2 g/mL and then injected into the Biacore™ 8K biosensor at 10 L/min for about 50 seconds to achieve a desired protein density (e.g., about 150 response units (RU)). […] Dissociation was monitored for 400 seconds. The chip was regenerated after the last injection of each titration with glycine (pH 2.0, 30 L/min for 30 seconds).

[4] = molecular target: T3, His-tagged recombinant monkey …; assay: SPR (Biacore 8K), antibody captured on Protein A chip, His-tagged antigen as analyte; "-" means no binding
Experimental: as §3

[5] = molecular target: T3, His-tagged recombinant monkey …; assay: SPR (Biacore 8K), antibody captured on Protein A chip, His-tagged antigen as analyte, 1:1 fit;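 also: antibodies captured at about 150 RU, antigen injected as a titration series, dissociation phase recorded over 400 s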
Experimental: as §3

[6] = molecular target: T1, human IL2RA expressed on CHO-S cells …; assay: flow cytometry on CHO-S cells expressing the target, anti-human IgG Fc secondary
Experimental: (§4) CHO-S-hIL2RA cells or CHO-S-fasIL2RA cells were plated in a 96-well plate at a density of 2×10⁵ cells/well. Serially diluted purified anti-IL2RA antibodies (maximum concentration: 9 μg/mL, 2-fold dilutions, 11 gradients) were added to each well and were incubated at 4° C. for 30 minutes.
(§5) The cells were collected, and the mean fluorescence intensity (MFI) was determined. A fitting curve was obtained using Log(antibody concentration (μg/mL)) as the X-axis and mean MFI as the Y-axis.

[7] = molecular target: T4, monkey (Macaca fascicularis) IL2RA …; assay: as above
Experimental: as §4, §5

| Binder | IC50 (read off the curve) [1] [µg/mL] | IC50 (read off the curve) [2] [µg/mL] | Kd [3] [nM] | koff [3] [s⁻¹] | kon [3] [M⁻¹ s⁻¹] | binding result [4] | Kd [5] [nM] | koff [5] [s⁻¹] | kon [5] [M⁻¹ s⁻¹] | EC50 [6] [µg/mL] | EC50 [7] [µg/mL] |
| --- | --- | --- | --- | --- | --- | --- | --- | --- | --- | --- | --- |
| B1 | ~0.6 | ~4 | – | – | – | – | – | – | – | – | – |
| B2 | – | – | 43.8 | 0.00203 | 46300 | no binding (tested: up to 200 nM antigen) | – | – | – | – | – |
| B3 | – | – | 6.35 | 0.0143 | 2.25e+06 | – | 24.6 | 0.0258 | 1.05e+06 | 0.411 | 0.435 |
| B4 | – | – | 0.266 | 9.42e-05 | 354000 | – | 0.528 | 0.000166 | 314000 | 0.099 | 0.111 |
| B5 | – | – | 8.9 | 0.00268 | 301000 | – | 118 | 0.0343 | 291000 | 0.083 | 0.091 |
| B6 | – | – | 1.27 | 0.000235 | 185000 | – | 2.53 | 0.000901 | 356000 | 0.052 | 0.039 |
| B7 | – | – | 0.655 | 2.11e-05 | 32300 | – | 11.8 | 0.000447 | 37800 | 0.326 | 0.275 |
| B8 | – | – | 5.14 | 0.00043 | 83800 | – | 271 | 0.0193 | 71400 | 0.47 | 0.466 |
| B9 | – | – | 3.72 | 0.000962 | 258000 | – | 53.1 | 0.0116 | 218000 | 0.093 | 0.088 |
